# Measured values published in the DeepSol protein solubility set.
# Assay: soluble on expression in E. coli; label from the status in PepcDB or PDB records
row,Sequence,soluble on expression in E. coli
1,NKNFSWNVNFNLTHFKNKVLELSPELNGQLIDGARIYREDESMYQLYLPKYVGVDSETGESLWALVTPDENGNTVTKSYSVASENRFASGDILPKVYGGFGTSVTAYGFDLSVSFAYQLGGRILDYTYQGLMDVAATGSALHKDMLKAWTPENKNTDVPRMNINDQYTNRLTDRFLTSSDYLSLQNITLGYTLPKSLTRKMQIDGVRVFFVADNVALLTARKGLDPRQGYVAADNVYSPIRTISGGISLNF,not soluble
2,MFFRSKKTHFLEVDKFWTPEKIVRSSEVKRINKNTEISTQESTSTSTEYQFATLEDFQNAMAEKDQNIKKLKEEVEKLIDEQEDEIILAEMQFEIFQIKAETEARRLKKLLIMRNEDFSILKTKYEDLQKQFYDLSPYPVNGYGGILIGDETPKQEKLMDQLLDKLKVLNDGDYYDIFHLLETIDKIIVTFSLYFKDPILITKKMEDNKQIIQKLEDEVDYLTKNLESLNPSQLVTSLENKDDYLLVTVEFQKRKNILFSELKKKNEEIKMLQESFNVYQKDSIEKVMEKFLELQHQNLTVFSVDDTNSISTELNNDRNVAKNDKSEGVESLMLENFNNSLKIALNSVKREISKQNVTIKTDEDMIKDMKKTIDSNENMIKMLADELSWKTKDCQVKVSALENQIFDKNDEIVKLKSHVSTESGNSPKLERNVRELTLKISSETSSQGTSRTYPHLEQEILTFHSEKISDPSEEANQEVREFPLEQTLEKLKLEQTESLVAILEQPGGLKTMRNDPQWLQVVDHFCDYVRKIEKLEENVKEEQMNTEMIMKERTREITELYYQKRVLEKKISEQFKEIQQVKSEISRVYEANIQEIQKSFDIKLKLKDQIIGELEAVDEMSSNHTELSDGWSDLDIVQNTEELQ,not soluble
3,AWQVNTAYTAGQLVTYNGKTYKCLQPHTSLAGWEPSNVPALWQLQ,soluble
4,YAGTSDAPYTGGFMNTFNYRNWELNLNFSYNLGAHVKTDPTYYIADPDPGRNMNRDILDRWTPENKNGKFPALTSLNTNPADYYLFSTRRDLYKSLDIWVKKLSYIRLQNIRLAYHFPSEWLHKLNIGGATVGLEARNLFVFGSSYKNYMDPESMSNLYSTPVPKSVTFNLSLNF,not soluble
5,MGSDKIHHHHHHMATVTTSEGSAERREADSGALARGLNILSRLHEAARPLSLQDIAESVGLPTTTCHRLLQSLDVAGYVYREGSLYCPTPRAACPLPLEHPLNRLRRDTAPLMRELQERHGPSVLLIAFLGDHRVTVECVAGNYSVTPYFDTTVTAPLHASVSGKILLSDRTDEQRDALLGQAPYSARTEWTIRDRAALYAELEEVRKRGWATNQNENVIGICAVGSRLAAPSGRALGAIVLTGPSRFFAKGFDTMRDDLLQACQMLNSTSHAIRTMTQLLGV,not soluble
6,MGSDKIHHHHHHAQDDANCNSNSSISHEAVKAGNFKDAYTPWKAVLENCPTLRFYTFTDGYKILKGLLGQIKDRNSAEYKKYFDELMNTHDLRMKYTQEFLGKGVKVSSEDEALGIKAVDYIAFAPKVDVNQAYDWLKKSVDAAKAESAAATLFYFLQMSHDKLKEDPAHKEQFIQDYLAASEYADDAIAAADKESVKKAFGGIKDNLVALFINSGTADCESLQGIYGPKVETNQTDLNYLKKVISIMKMMKCTDSDAYQQASFYVYKIEPSAEAATGCAYQAYKKGDIDGSVKFFDEAINLETDNAKKAEKAYAAASVLTTAKKLSQARSYAQKAISFNENYGAPYILIANLYAMSPNWSDESALNKCTYFAVIDKLQKAKSVDPSVTEEVNKMISRYSAYTPQAKDLFMLGYKAGDRITIGGWIGESTTIR,not soluble
7,MKLTDRLLKIASLVSDGKKIADIGTDHGYIPVYLLKEGKVPFAVLADVNKGPLDNAHKEVIQNNLLDKVDLRLGSGIEILEIGEVEEVIIAGMGGILISELLEAKKEVAHNVEKLILQPMQAQEELRYYLLNNGYEILEEVLVREDFRIYEIIVAKYTGKNTIIEDEIYYEVGIKLLENKDSLFNDFIEKKIKTYSSIVNKLEGKNGEAIDKKRKESEVAIKKLENLIK,not soluble
8,MASSTSLAIVLHQSSNHDELFMKQTLQFSETLKDLKNLRKQLYSAAEYFETSYGKAEHKETVIETLKEYAAKAVVNTVDHLGSVSDKFNSFLSDNSTHFSTTHLRLSSLEQRMRLCRDYMGKSGTHQHLLLFQYPRHHKRYFFPQQGRGTSFSAGDDSHRFTSAVRSTILENLPNTARKANKTGSFSFAPIVHNNINNRTPNKRSNSPMRFPLLRSGSLLKRSSSPSQPKKPPLALPEPQRAISVSRNTEIVEIKQSSSRKGKKILMFKALMSMSKSRN,soluble
9,SAGVRGLRFVERFGDNTASLIKNAILLDQQKVEVFNIRFKSSRDFTIQIKLNAKGNYKKSEVEKYKSQIGVQDNELGDKEEGTLEADLIFTYTPPASNLFSKSNFDKLTKSINFNTNLKLEMVGKDEVMRKILNSSAFTNNLASVNYPNQAVNLLPYVLYSIL,not soluble
10,MDQALLDGGYRCYTGEKIDVYFNTAICQHSGNCVRGNGKLFNLKRKPWIMPDEVDVATVVKVIDTCPSGALKYRHK,soluble
11,MATCGRRDDILDLLKSLEQQTYKNFELIVVDQNDTPISDLFDEYKDKFSINYIYTPIKGLSRARNAGLKVADGDFIAFPDDDCIYEKNVLESILETFNSNKDVHFISTNTTNVEGTGSLIHAPNTDIILNNKYGFMGPSFTLFFTKQFVQDVGTFDEDLGVGSGTIYGAGEETDFVLRGMKQNYTGLFRKDLFVYHPVKEEIINEQSLKRAISYAGGFGRIIRLHYGFPYFLRAVAAATFRMTQNISNDKRKFHANRLRGIVRGYLK,not soluble
12,FLLPPSTACCTQLYRKPLSDKLLRKVIQVELQEADGDCHLQAFVLHLAQRSICIHPQNPSLSQWFEHQERKLHGTLPKLNFGMLRKMG,soluble
13,MSKIEIFEAAGCCATSSVVVSDEAVKWNASAEWAKKHGVNIQRYSLAKNPQQFLNTPVIRAFLNTSGMESLPATLLDGQLVMAGKLPSREDIARWAG,soluble
14,MGSDKIHHHHHHMQPDLLVFGGDLISGPIPLETLDLIYDLKSKYRTASVLGNNDQDIIDSYENKKLSLSNKAQEQIKWVTRLLNEKQILDLKDMPININVGKYFFCHAIADDNRTIFTQKTRISNIKQLFLEVISPFIICGHTHLQFKLKIGSQQIINAGSVGMPFSDKKGAQWLWIENNNFQFRRTLFDEDIAIKNMKNSDFPFVNQFIEEYVKNTVKVRTGYKILRRLEENNRLRK,not soluble
15,MSLSETTQTSQSLYQALWNSADVLRSKMDANDYKSYLLGMVFYKYLSDKMLFFVAETMEEETESLDEALAVYRKYYEDEETHEDLLAVITDEMSYAIHPDLTFTALVERVNDGSFQLEDLAQGFRDIEQSDELYENLFEDIDLYSKKLGATPQKQNQTVAAVMKELAVLDVAGHAGDMLGDAYEYLIGQFATDSGKKAGEFYTPQPVAKLMTQIAFLGREDKQGFTLYDATMGSGSLLLNAKRYSRQPQTVVYFGQELNTSTYNLARMNMILHGVPIENQFLHNADTLDEDWPTQEPTNFDGVLMNPPYSAKWSASSGFMDDPRFSPFGKLAPKSKADFAFLLHGYYHLKQDNGVMAIVLPHGVLFRGNAEGTIRKALLEEGAIDTVIGLPANIFFNTSIPTTVIILKKNRTNRDVYFIDASKEFDKGKNQNIMTDAHIEKILNAYKSREDIDKFAHLASFEEIVENDYNLNIPRYVDTFEEEEVEPLTEIVAKINQTNATIESQTASLLDMLGQLHGTTPEADEELKAFVKAFKGEGHHHHHH,soluble
16,MGSDKIHHHHHHMRSFTQSSKPIFKDHIVQQSSLVANNYRFIGPRLIDNTPVLFGSFSVVQLNPHLILHTADVINRHNMKTQNLLDSAIKLAIVVSGNAHISFGHQELHLGESQPASLIALTEPTMFTRIGKRDEYERTITLTFDREWLYGNMMDTVGDWQAIHDFTQTHLATHLWTPSRQARAIALQTLDANPCQTPLQRLYLETQCMSLIIEAFTSLTASVAQEKSSGVTLRGYHRIQQIRDMLESGSADHLSMSEIAKSVNMSESTLQRHFRQTFNMSVFEYLRNCRLQRAMLALQKDGIGIAQAASIAGYNSPANFATALRRAFGITPGQLKDRF,not soluble
17,SLEKHSWYHGPVSRNAAEYLLSSGINGSFLVRESESSPGQRSISLRYEGRVYHYRINTASDGKLYVSSESRFNTLAELVHHHSTVADGLITTLHYPAPKRNKPTVYGVSPNY,soluble
